The values below come from patent publication US6866851 (WASHINGTON UNIVERSITY, dated 2005).

This test has as its target GFRα2-RET receptor complex (cells transfected with GFRα2 and expressing RET). Briefly: cell-based or functional assay.

B1: PGP-F2ac (His-Flag-PGP-F2ac, from mouse persephin and rat GDNF) (ligand)
chain: ALAHHHHHHDYKDDDDKGSCRLWSLTLPVAELGLGYASEEKVIFRYCAGSCPQEARTQHSLVLARLRGRGRAHGRPCCQPTAFDDDVTFLDDQHHYHILRKHSAAACGC
As to B1, the “GFRα2-RET reporter activation relative to GDNF” value is < 30 % of GDNF.
